Where a chain is given by its changes, count along the chain named.
Experiments:
Assay in all cases: co-expression in Tni insect cells, pulldown via Twin Strep tag on G-CSF, SDS-PAGE
[1] = target: T1, G-CSFR(CRH)E site II design 35 with N-terminal His tag (human)
T1 construct: also called design #35 G-CSFR(CRH)E
T1 chain: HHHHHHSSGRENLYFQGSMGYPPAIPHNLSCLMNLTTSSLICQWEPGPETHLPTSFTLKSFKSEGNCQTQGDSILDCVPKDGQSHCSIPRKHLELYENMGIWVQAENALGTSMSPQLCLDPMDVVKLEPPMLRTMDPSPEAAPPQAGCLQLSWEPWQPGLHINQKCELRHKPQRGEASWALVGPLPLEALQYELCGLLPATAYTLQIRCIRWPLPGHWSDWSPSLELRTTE

[2] = target: T2, G-CSFR(CRH)E site II design 30 with N-terminal His tag (human, UniProt Q99062 120-331)
T2 construct: also called design #30 G-CSFR(CRH)E
T2 chain: T1 chain with E64R, R90D, E94L, E97Q

[3] = target: T3, G-CSFR(Ig-CRH)E combination design 401 with N-terminal His tag (human, UniProt Q99062 25-331)
T3 construct: also called design 401 engineered receptor
T3 chain: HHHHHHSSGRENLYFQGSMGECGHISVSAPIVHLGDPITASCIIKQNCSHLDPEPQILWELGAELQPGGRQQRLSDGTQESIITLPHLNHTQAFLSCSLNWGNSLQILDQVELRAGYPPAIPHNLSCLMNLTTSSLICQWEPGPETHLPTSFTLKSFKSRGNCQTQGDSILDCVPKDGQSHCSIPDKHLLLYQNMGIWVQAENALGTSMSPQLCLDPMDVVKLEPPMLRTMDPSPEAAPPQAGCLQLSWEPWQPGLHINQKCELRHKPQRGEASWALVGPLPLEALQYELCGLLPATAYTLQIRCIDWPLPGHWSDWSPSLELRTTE

[4] = target: T4, G-CSFR(Ig-CRH)E combination design 402 with N-terminal His tag (human, UniProt Q99062 25-331)
T4 construct: also called design 402 engineered receptor
T4 chain: T3 chain with D186E, Q193E, D307E

[5] = target: T5, G-CSFR(CRH)E site II design 8 with N-terminal His tag (human)
T5 construct: also called design #8 G-CSFR(CRH)E
T5 chain: T1 chain with E64R, R90D, K91D, E94L, E97Q, D120E

[6] = target: T6, G-CSFR(CRH)E site II design 9 with N-terminal His tag (human)
T6 construct: also called design #9 G-CSFR(CRH)E
T6 chain: T1 chain with R90D, K91D, E94L, E97D

[7] = target: T7, G-CSFR(CRH)E site II design 34 with N-terminal His tag (human, UniProt Q99062 120-331)
T7 construct: also called design #34 G-CSFR(CRH)E
T7 chain: T1 chain with R90D, E94L, E97Q

[8] = target: T8, G-CSFR(CRH)E site II design 15 with N-terminal His tag (human)
T8 construct: also called design #15 G-CSFR(CRH)E
T8 chain: T1 chain with E64R, E94R, Y96V, E97Q, D120R

Measured: binding result

B1: WT G-CSF with C-terminal Twin Strep tag (ligand)
chain: not shown
notes: also called G-CSFWT
no binding: all assays above
